Test results: patent US6846645B2, “Multiplexed enzymatic assays” (Aclara Biosciences, Inc., priority 2000, dated 2005)

Legend:
[1] = system: Receptor II kinase; assay: Screening assay for competitive inhibitors: competition between insulin β chain and EGF, monitored by receptor II kinase activity; format: biochemical
Description: Before adding kinase substrate, incubate the mixture for 5 min to activate receptor II kinase by binding to insulin β. The incubation was done at room temperature for 30 min. Either 10 μL of 200 mM EDTA is added or the sample is frozen to stop the reaction before analysis. For the frozen sample, analysis was performed immediately after thawing the samples. Analysis was done on a modified Henry chip with 5 mm effective separation length. The injection was performed by applying 400 V at well #2 for 45 s while grounding other wells. The separation conditions are: 0 V for Well #1, 400 V for well #2 and 4, 700 V for well #3.

[2] = system: Receptor II kinase; assay: Receptor II assay: ligand enhancement of receptor II kinase activity; format: biochemical; settings: saturating (high) ligand concentrations, 25 μM substrate, fixed amount of receptor II
Description: Before adding kinase substrate, incubate the mixture for 5 min to activate receptor II kinase by binding to insulin β. The incubation was done at room temperature for 30 min. Either 10 μL of 200 mM EDTA is added or the sample is frozen to stop the reaction before analysis. For the frozen sample, analysis was performed immediately after thawing the samples.
Analysis was done on a modified Henry chip with 5 mm effective separation length. The injection was performed by applying 400 V at well #2 for 45 s while grounding other wells. The separation conditions are: 0 V for Well #1, 400 V for well #2 and 4, 700 V for well #3.
As another example, receptor II (an insulin-related receptor) was studied in connection with insulin-like growth factor (IGF). A significant enhancement (>4 fold) in receptor II kinase activity was observed. Other ligands tested include insulin, insulin α and β chain. Both insulin and insulin β chain stimulated this receptor kinase activity by as much as 20 fold when a high concentration was used (Table 2). […] For this experiment, 25 μM substrate was used with a fixed amount of receptor II and various amounts of ligands to ensure a saturated binding between receptor and ligand.

Substance	extent of competition with activating ligand ([1]; higher insulin β concentration (15 μM), FIG. 14A)	extent of competition with activating ligand ([1]; lower insulin β chain concentration of 3 μM, FIG. 14B)	IC50 ([1]; read-out: IC50 of EGF competing with insulin β chain activation of receptor II kinase, insulin β chain at 3 μM and 15 μM, fixed receptor concentration) [nM]	Receptor II Kinase Activity Enhancement (fold) [2]	Receptor II Kinase Activity Enhancement (fold) ([2]; listed as Insulin α chain)
Epidermal growth factor [EGF]	did not show complete competition	near complete competition	200 to 300		
Insulin α chain				˜3 fold	about 3 fold
Insulin β chain				>20 fold	
insulin				>20 fold	
